This note sets out measurements from article PMC11467737, “Osteocalcin binds to a GPRC6A Venus fly trap allosteric site to positively modulate GPRC6A signaling” (FASEB BioAdvances, 2024).

Ends that are not written are not given here.

Test [1] deals with T1, human GPRC6A isoform 3 (Homo sapiens, UniProt Q5T6X5).
T1 construct: expressed in transfected cells; host or cells: HEK-293
T1 sequence (Q5T6X5 19-855 isoform Q5T6X5-3 limits assumed): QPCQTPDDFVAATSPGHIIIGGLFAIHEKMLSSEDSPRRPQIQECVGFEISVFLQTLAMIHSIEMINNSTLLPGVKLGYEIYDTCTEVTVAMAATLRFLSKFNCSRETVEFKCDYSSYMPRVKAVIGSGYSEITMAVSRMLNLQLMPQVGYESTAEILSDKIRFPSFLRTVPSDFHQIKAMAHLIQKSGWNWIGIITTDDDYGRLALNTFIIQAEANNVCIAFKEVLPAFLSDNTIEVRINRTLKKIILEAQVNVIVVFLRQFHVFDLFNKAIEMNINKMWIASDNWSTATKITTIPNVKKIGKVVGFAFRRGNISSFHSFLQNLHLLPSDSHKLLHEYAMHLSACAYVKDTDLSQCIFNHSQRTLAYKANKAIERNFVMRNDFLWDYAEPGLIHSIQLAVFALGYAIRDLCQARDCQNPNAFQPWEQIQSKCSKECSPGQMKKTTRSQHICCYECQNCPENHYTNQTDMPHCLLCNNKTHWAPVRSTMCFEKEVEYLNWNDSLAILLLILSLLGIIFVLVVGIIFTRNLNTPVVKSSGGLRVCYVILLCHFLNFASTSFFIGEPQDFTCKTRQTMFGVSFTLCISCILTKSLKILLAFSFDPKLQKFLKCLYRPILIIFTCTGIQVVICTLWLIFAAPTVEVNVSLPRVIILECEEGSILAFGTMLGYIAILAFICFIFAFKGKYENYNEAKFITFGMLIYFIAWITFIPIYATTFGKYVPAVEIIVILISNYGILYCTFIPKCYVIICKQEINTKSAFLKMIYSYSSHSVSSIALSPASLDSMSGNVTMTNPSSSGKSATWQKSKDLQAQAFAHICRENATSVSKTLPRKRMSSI
Description: cAMP accumulation in HEK-293 cells transfected with human GPRC6A isoform 3. The format is cell-based. As to conditions: isoform 3; Ocn 1.73-26.0 nM; 1 mM calcium; 40 min; Figure 2C. As for the experimental part: HEK‐293 transfected with human GPRC6A isoform cDNA plasmids cells (10^5 cells/well)[30] were cultured in 24‐well plates in DMEM supplemented with 10% fetal bovine serum and 1% penicillin/streptomycin (100 U/mL of penicillin and 100 μg/mL of streptomycin) for 48 h followed by 4 h incubation in DMEM/F12 containing 0.1% BSA and 0.5 mM IBMX to achieve quiescence and preventing cAMP degradation. Quiescent cells were treated with vehicle control, various ligands at concentration as indicated for 40 min at 37°C. Then, the reaction was stopped, and the cells lysed with 0.5 mL 0.1 N HCl. cAMP levels were measured by using Cyclic AMP EIA kit (Cayman Chemical; Ann Arbor, MA, USA) following the manufacture's protocol.

Test [2] addresses T2, human GPRC6A isoform 2 (Homo sapiens, UniProt Q5T6X5).
T2 construct: expressed in transfected cells; host or cells: HEK-293
T2 sequence (Q5T6X5 19-751 isoform Q5T6X5-2 limits assumed): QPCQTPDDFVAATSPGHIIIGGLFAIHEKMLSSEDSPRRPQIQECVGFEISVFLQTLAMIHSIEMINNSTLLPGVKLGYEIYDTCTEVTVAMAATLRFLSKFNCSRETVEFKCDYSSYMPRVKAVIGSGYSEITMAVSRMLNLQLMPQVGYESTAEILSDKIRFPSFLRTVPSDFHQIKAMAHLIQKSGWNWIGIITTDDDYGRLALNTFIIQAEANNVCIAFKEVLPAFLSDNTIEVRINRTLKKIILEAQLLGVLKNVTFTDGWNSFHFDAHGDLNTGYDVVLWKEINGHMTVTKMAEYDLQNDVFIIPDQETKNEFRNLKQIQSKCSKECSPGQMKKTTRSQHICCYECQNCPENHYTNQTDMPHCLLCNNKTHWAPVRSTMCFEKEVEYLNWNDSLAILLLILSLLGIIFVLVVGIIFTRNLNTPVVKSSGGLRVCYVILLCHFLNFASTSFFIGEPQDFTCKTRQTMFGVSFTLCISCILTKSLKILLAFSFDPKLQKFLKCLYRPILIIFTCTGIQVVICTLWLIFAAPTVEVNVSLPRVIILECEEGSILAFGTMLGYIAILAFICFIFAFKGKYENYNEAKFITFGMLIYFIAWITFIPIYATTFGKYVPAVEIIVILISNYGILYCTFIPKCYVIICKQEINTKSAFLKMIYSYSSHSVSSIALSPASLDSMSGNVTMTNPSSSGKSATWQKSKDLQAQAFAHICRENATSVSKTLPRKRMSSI
Description: ERK activation (ELISA) in HEK-293 cells transfected with human GPRC6A isoform 2. The format is cell-based. Conditions: Ocn 1.73-26.0 nM, 1 mM calcium, 15 min, Figure 2B. The protocol:
All culture reagents were from Invitrogen (Waltham, MA, USA). Human embryonic kidney HEK‐293 cells were obtained from American Type Culture Collection and cultured in DMEM medium supplemented with 10% fetal bovine serum and 1% Penicillin/Streptomycin (P/S). Briefly, HEK‐293 cells transfected with/without human GPRC6A isoforms cDNA plasmids were starved by overnight incubation in serum‐free DMEM/F12 containing 0.1% bovine serum albumin (BSA) and stimulated with various ligands at different doses. […]

Regarding “osteocalcin (YLYQWLGAPVPYPDPLEPRREVCELNPDCDELADHIGFQEAYRRFYGPV; not fully specified; ends and bridges not checked; UniProt P02818 52-100, looked up) [Ocn 1–49, full human Ocn (49 aa) synthesized by BioMatik; methods also describe decarboxylated Ocn purified from bovine tibial bone, reference compound]”, the “Ocn-induced cAMP accumulation, dose response” value in test [1] is listed as “maintained the cAMP response”. The “Ocn-induced ERK activation, dose response” value in test [2] is “attenuated ERK response”.
